Source: patent publication US9777044B2, “GLUT-1 as a receptor for HTLV envelopes and its uses” (CENTRE NATIONAL DE LA RECHERCHE SCIENTIFIQUE (CNRS), priority 2003, dated 2017)

Tests used:
[1] = system: 293T cells and Jurkat T cells; assay: RBD binding after overnight culture in the absence of glucose; parameters: species or system human; conditions: both 293T cells and Jurkat T cells
Description: Cell culture. 293T human embryonic kidney and HeLa cervical carcinoma cells were grown in Dulbecco's modified Eagle medium (DMEM) with high glucose (4.5 g/l) and Jurkat T-cells were grown in RPMI supplemented with 10% fetal bovine serum (FBS) at 37° C. in a 5% CO2-95% air atmosphere. For glucose starvation experiments, cells were grown in either glucose-free DMEM (Life Technologies) or glucose-free RPMI—(Dutscher) with 10% dialyzed FBS (Life Technologies) and glucose (1 g/l) was supplemented when indicated.
(§1) Binding assays. Binding assays were carried out as previously described [Manel, 2003]. Briefly, 5×10^5 cells (293T, HeLa, Jurkat or freshly isolated human erythrocytes) were incubated with 500 μl of H1RBD, H2RBD or ARBD supernatants for 30 min at 37° C., washed with PBA (1% BSA, 0.1% sodium azide in PBS), and incubated with a sheep anti-rabbit IgG antibody conjugated to fluorescein isothiocyanate (Sigma). […] Binding was analyzed on a FACSCalibur (Becton Dickinson) and data analysis was performed using CellQuest (Becton Dickinson) and WinMDI (Scripps) softwares.

human erythrocytes = assay: RBD binding on freshly isolated human erythrocytes; conditions: freshly isolated red blood cells
Description: as §1

GLUT-1 = molecular target: T1, GLUT-1 (Homo sapiens, UniProt P11166); assay: Immunoprecipitation of GLUT-1-HA with anti-rabbit-Fc beads; format: binding; conditions: co-expression with GLUT-1 in 293T cells, probed with anti-HA antibody
T1 construct: factor Xa cleavage site (C); His (C); expressed in transfected cells
T1 sequence (P11166 1-492): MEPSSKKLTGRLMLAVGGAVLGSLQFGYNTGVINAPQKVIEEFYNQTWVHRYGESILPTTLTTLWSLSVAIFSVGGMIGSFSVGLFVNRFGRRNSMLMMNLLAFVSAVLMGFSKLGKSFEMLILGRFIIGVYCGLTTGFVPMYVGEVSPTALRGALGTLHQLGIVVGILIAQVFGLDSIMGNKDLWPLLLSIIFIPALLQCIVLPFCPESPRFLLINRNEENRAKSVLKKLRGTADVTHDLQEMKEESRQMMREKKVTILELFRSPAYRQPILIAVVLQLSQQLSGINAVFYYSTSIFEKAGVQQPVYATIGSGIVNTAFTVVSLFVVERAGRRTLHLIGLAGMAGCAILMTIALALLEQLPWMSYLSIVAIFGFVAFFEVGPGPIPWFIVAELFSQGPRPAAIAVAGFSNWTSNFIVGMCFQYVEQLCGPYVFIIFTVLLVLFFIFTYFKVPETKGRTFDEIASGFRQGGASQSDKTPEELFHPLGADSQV
From the text: FIGS. 4a-4c GLUT-1 is a receptor for HTLV envelopes. FIG. 4a, Binding of H1RBD, H2RBD, H2RBD D102A mutant, and ARBD to control 293T cells or 293T cells overexpressing either GLUT-1 or PiT2. FIG. 4b, Binding of H2RBD-EGFP to cells overexpressing GLUT-1-HA or GLUT-3-HA, and corresponding immunoblots using an anti-HA antibody. FIG. 4c, Immunoprecipitation of GLUT-1-HA from 293T cells transfected with either an irrelevant construct, GLUT-1 alone, H1RBD alone, H1RBD Y114A alone, GLUT-1 with H1RBD or GLUT-1 with H1RBD Y114A expression vectors Immunoprecipitation was performed using anti-rabbit-Fc beads and probed with an anti-HA antibody. Total cell extracts were blotted using an anti-rabbit Fc or an anti-HA antibody.
In order to directly test the ability of HTLV envelopes to bind GLUT-1, we derived a tagged GLUT-1 expression vector and overexpressed this protein in HeLa cells. […] GLUT-3 is the closest isoform to GLUT-1, and transports glucose with kinetics similar to that of GLUT-1. Thus, we derived a tagged GLUT-3 expression vector. […] To determine if GLUT-1 transfected cells were directly responsible for the observed increased in H1RBD binding, we derived fluorescent tagged GLUT-1 and GLUT-3 to uniquevocally identity GLUT-overexpressing cells in the course of our FACS analysis. […] To this end, we evaluated the ability of H1RBD to immunoprecipitate GLUT-1. […]

293T cells = assay: Hexose uptake assay: fructose; format: cell-based, human; conditions: transfected 293T cells
Description: Assay of hexose uptake. 2-deoxy-D[1-^3H]glucose, D[U-^14C]fructose and 3-O-[^14C]methyl-D-glucose were obtained from Amersham. Hexose uptake assay were adapted from Harrison et al. 1991). After transfection, approximately 250,000 were seeded/well in 24-well plates. […] Uptake was initiated by adding labeled hexoses to a final concentration of 0.1 mM (2 μCi/ml for 2-2-deoxy-D[1-^3H]glucose and 0.2 μCi/ml for D[U-^14C]fructose and 3-O-[^14C]methyl-D-glucose) and cells were incubated for 5′ additional minutes. Cells were then resuspended in 500 μl cold serum-free glucose-free DMEM, wash one time in serum-free glucose-free DMEM, and solubilized in 400 μl of 0.1% SDS. 3 μl was used for Bradford normalization, while the rest was used for detection of either ^3H or ^14C by liquid scintillation in a Beckman counter.

B1: H1RBD: first 215 residues of HTLV-1 SU fused to a C-terminal rabbit IgG Fc tag (rFc) (protein)
chain: DYSPSCCTLTIGVSSYHSKPCNPAQPVCSWTLDLLALSADQALQPPCPNLVSYSSYHATYSLYLFPHWIKKPNRNGGGYYSASYSDPCSLKCPYLGCQSWTCPYTGAVSSPYWKFQQDVNFTQEVSRLNINLHFSKCGFPFSLLVDAPGYDPIWFLNTEPSQLPPTAPPLLPHSNLDHILEPSIPWKSKLLTLVQVDVPRDCGCKPCICTVPEVSSVFIFPPKPKDVLTITLTPKVTCVVVDISKDDPEVQFSWFVDDVEVHTAQTQPREEQFNSTFRSVSELPIMHQDWLNGKEFKCRVNSAAFPAPIEKTISKTKGRPKAPQVYTIPPPKEQMAKDKVSLTCMITDFFPEDITVEWQWNGQPAENYKNTQPIMDTDGSYFVYSKLNVQKSNWEAGNTFTCSVLHEGLHNHHTEKSLSHSPGK
In the case of B1, the “increase of binding after overnight culture in the absence of glucose” value [1] is reported as 2 fold, the “binding on human erythrocytes” value (human erythrocytes) is reported as “strikingly efficient” and the “detection of GLUT-1 upon immunoprecipitation with anti-rabbit-Fc-beads” value (GLUT-1) is reported as “readily detected”. The Fructose uptake (293T cells) was “not altered”.
